The results in this text go back to patent US20260116968A1 (CELLDEX THERAPEUTICS, published 2026).

Experiment [1] addresses T1, kappa-sCD40(1-94)-Flag mutant fragment B (multiple mutations of residues 13-15) (human, UniProt P25942 21-114).
T1 construct: also called B (13-15); not shown: The N-terminal human kappa light chain and the C-terminal Flag tag
T1 chain: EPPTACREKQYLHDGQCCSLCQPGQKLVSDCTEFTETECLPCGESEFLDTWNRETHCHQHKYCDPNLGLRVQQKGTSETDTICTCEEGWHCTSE
The experiment can be described thus: ELISA, kappa-sCD40-Flag captured by anti-Flag, anti-human IgG Fc-HRP detection. Here is the method: (§1) 1 μg/ml of purified kappa-sCD40-Flag fusion proteins or CHO cell supernatants containing the sCD40 fusion proteins were captured to microtiter plates that were pre-coated with 5 μg/ml mouse anti-Flag antibody (Sigma) in PBS and blocked with 5% bovine serum albumin in PBS. Following incubation with the CD40 antibody, the microplates were washed with PBS/Tween, and incubated with a goat anti-human IgG Fc polyclonal reagent conjugated to horseradish peroxidase. After washing, the plates were developed with HRP substrate, and analyzed at OD 450-650 using a microtiter plate reader. An ELISA with a goat anti-human IgG Fab2-HRP to measure kappa chain binding was carried out in parallel to validate the sCD40 fusion protein expression from different transfections.

Experiment [2] has as its target T2, kappa-sCD40(1-94)-Flag mutant fragment C (multiple mutations of residues 25, 26, 28 and 30) (human, UniProt P25942 21-114).
T2 construct: also called C (25, 26, 28, 30); not shown: The N-terminal human kappa light chain and the C-terminal Flag tag
T2 chain: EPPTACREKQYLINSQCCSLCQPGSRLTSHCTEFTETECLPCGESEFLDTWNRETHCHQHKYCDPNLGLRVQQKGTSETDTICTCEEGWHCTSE
Described as above. Here is the method:
as §1

The target of experiment [3] is T1, kappa-sCD40(1-94)-Flag mutant fragment …. The experiment can be described thus: ELISA, kappa-sCD40-Flag (~2 ug/ml) captured by anti-Flag, anti-human IgG Fc-HRP detection. Here is the method:
as §1, with “containing” for “1 μg/ml of purified kappa-sCD40-Flag fusion proteins or CHO cell supernatants containing”

Experiment [4] addresses T2, kappa-sCD40(1-94)-Flag mutant fragment …. Described as above. Here is the method:
as §1, with “containing” for “1 μg/ml of purified kappa-sCD40-Flag fusion proteins or CHO cell supernatants containing”

Experiment [5] concerns the target T3, human CD40 expressed on the cell surface (Raji cells, Ramos cells, human PBMC B cells, luciferase reporter … (human, UniProt P25942 21-277)).
T3 construct: also called CD40 on cells expressing human CD40
The experiment can be described thus: flow cytometry on Raji and Ramos cells. Here is the method:
Antibodies from Example 1 were tested for binding to human cell lines expressing human CD40 on their surface. […] After 20 minutes, the cells were washed with PBS containing 0.1% BSA and 0.05% NaN3 (PBA) and the bound antibodies were detected by incubating the cells with a PE labeled goat anti-human IgG Fc-specific probe. The excess probe was washed from the cells with PBA and the cell associated fluorescence was determined by analysis using a FACSCanto II™ instrument (BD Biosciences, NJ, USA) according to the manufacturer's directions.

T3 sequence (P25942 21-277 limits assumed): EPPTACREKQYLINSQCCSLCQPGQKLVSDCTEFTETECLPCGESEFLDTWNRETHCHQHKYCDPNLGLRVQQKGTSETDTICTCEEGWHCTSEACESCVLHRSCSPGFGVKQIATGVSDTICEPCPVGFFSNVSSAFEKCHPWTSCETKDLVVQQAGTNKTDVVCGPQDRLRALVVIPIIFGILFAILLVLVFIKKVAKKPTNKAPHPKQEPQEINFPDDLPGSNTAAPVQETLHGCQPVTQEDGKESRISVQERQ

B1: anti-CD40 human monoclonal antibody 3C3 (antibody, human IgG2, kappa, V domains shown)
VH: QVQLVESGGGVVQPGRSLRLSCAGSGFIFSRYGMYWVRQAPGKGLEWVAVIWYDGSYKYYADSVKGRFTISRDNSKNTLYLQMNSLRAEDTAVYYCARESPWYYFDYWGQGTLVTVSS
VL: DIQMTQSPSSLSASVGDRVTITCRASQGISNYLAWYQQKPGKVPKLLIYAASTLQSGVPSRFSGSGSGTDFTLTISSLQPEDVATYYCQKYKSAPFTFGPGTKVDIKR
notes: Full chains with leader removed; human IgG2 constant domain with C-terminal lysine removed; also called anti-CD40 mAb 3C3; CD40 antibody 3C3
B1: the “Average OD” value in experiment [1] was 2.03 OD 450-650; in experiment [2], 1.49 OD 450-650. The OD is 2.38 OD 450-650 in experiment [3] and 2.02 OD 450-650 in experiment [4].

B2: anti-CD40 human monoclonal antibody 3B6 (antibody, human IgG2, V domains shown)
VH: EVQLLESGGGLVQPGGSLRLSCAASGFTFSSYAMSWVRQAPGKGLEWVSGITGTGGSTYYADSVKGRFTISRDNSKNTLYVQMNSLRAEDTAVYYCAKRAGGSFYYYYGMDVWGQGTTVTVSS
VL: DIVMTQSPLSLPVTPGEPASISCRSSQSLLHSTGYNYLDWYLQKPGQSPQLLIYLGSNRASGVPDRFNGSGSGTDFTLKISRVEAEDFGVYYCMQALQTPWTFGHGTKVEIK
notes: Human IgG2
Take B2: the binding result in experiment [5] is recorded as “binds”.

B3: anti-CD40 human monoclonal antibody 6H6 (antibody, human IgG2, V domains shown)
VH: QVQLVESGGGVVQPGRSLRFSCAASGFTLSSYGMHWVRQAPGKGLEWVAVIWDDGSNKYYADSVKGRFTISRDNSKNTLYLQMNSLRAEDTAVYYCARAGGSGRYYNYFDYWGQGTLVTVSS
VL: EIVMTQSPATLSVSPGERATLSCRASQSVRSNLAWYQQKPGQAPRLLIYGASTRATGIPARFSGSGSGTDFTLTISSLQSEDFAVYYCQQHNNWLTFGGGTKVEIK
notes: Human IgG2
With B3, in experiment [5], the binding result is on record as “binds”.

B4: anti-CD40 human monoclonal antibody 1B4 (antibody, human IgG2, V domains shown)
VH: EVQLLESGGGLVQPGGSLRLSCAASGFTFSSYAMTWVRQVPGKGLEWVSGITGSGANTFYTDSVKGRFTISRDNSNNSLYLQMNSLRADDTAVYYCAKRNGGSYYYYYGMDVWGQGTTVTVSS
VL: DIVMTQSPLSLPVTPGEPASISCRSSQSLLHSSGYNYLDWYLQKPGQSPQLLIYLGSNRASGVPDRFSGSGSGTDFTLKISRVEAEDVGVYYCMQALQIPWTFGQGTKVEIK
notes: Human IgG2
In the case of B4, the binding result in experiment [5] is on record as “binds”.
